Experimental findings from patent publication US6849610 are described below.

This series relates to HCMV intact particles AD169 (Human cytomegalovirus AD169). Kind of series: cell_activity. Particulars: 2'-NH2 on all pyrimidines, plaque formation, 1e5 PFU/ml.

In turn, “GGGAGACAAGAAUAAACGGUCAAUGUGGGUCGUGUUAAGCUUCGGGCUUCGCGCAAAUCUGGGUUCGACAUGAGGG [L66]” showed an IC50 (viral yield IC50 18±4 nM) of 0.015 µM.
In the case of “GGGAGACAAGAAUAAACGGUCAACUCGAGCCACCCCAUAACCCUCAAUACUCCAGGGAUUGGGUUCGACAUGAGGG [L19]”, the IC50 (viral yield IC50 35±7 nM) stood at 0.035 µM.
For “GGGAGACAAGAAUAAACGGUCAAUUACGGUCACCUUACCCCUGGGUGUGCUCUUCCCGGUGGGUUCGACAUGAGGG [L13]”, the IC50 (viral yield IC50 100±20 nM) worked out at 0.125 µM.

One may read the IC50 as the midpoint of a concentration-inhibition curve. Low readings indicate inhibition by little substance, high ones a need for much substance.
